Here are results for 11 molecules from patent publication US20210261648A1 (published 2021).

The target in assay [1] is T1, FcγRIIa type H extracellular domain with C-terminal His tag (human, UniProt P12318 34-217).
T1 construct: extracellular domain; also called FcgRIIaH; FcγRIIa H
T1 sequence (looked up): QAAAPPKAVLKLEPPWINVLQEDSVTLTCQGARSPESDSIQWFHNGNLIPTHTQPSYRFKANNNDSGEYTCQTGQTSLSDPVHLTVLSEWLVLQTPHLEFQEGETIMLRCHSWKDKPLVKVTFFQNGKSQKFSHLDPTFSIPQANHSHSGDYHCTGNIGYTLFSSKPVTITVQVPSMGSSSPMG
As to the kind of experiment: SPR, captured antibody, FcgR analyte.
Protocol: (§1) Relative binding activities were calculated for the results of analyzing interactions with the respective FcγRs according to the following method.

Assay [2] concerns the target T2, FcγRIIb extracellular domain with C-terminal His tag (human, UniProt P31994 43-217).
T2 construct: extracellular domain; also called FcgRIIb
T2 sequence (looked up): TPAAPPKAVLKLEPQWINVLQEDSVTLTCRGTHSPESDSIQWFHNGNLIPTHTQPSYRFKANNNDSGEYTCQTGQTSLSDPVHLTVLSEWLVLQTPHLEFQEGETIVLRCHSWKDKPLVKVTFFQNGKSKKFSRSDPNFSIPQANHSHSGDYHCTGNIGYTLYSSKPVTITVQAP
As to the kind of experiment: SPR, captured antibody, FcgR analyte.
Protocol: as §1

Assay [3] has as its target T3, FcγRIa extracellular domain with C-terminal His tag (human, UniProt P12314 16-292).
T3 construct: also called FcgRIa
As to the kind of experiment: SPR, captured antibody, FcgR analyte.
Protocol: as §1

The target in assay [4] is T4, FcγRIIb extracellular domain with C-terminal His tag (human, UniProt P31994 43-217).
T4 construct: extracellular domain; For crystals it was expressed with kifunensine and trimmed with Endo F1; also called FcgRIIb; FcγRIIb extracellular region
T4 sequence (looked up): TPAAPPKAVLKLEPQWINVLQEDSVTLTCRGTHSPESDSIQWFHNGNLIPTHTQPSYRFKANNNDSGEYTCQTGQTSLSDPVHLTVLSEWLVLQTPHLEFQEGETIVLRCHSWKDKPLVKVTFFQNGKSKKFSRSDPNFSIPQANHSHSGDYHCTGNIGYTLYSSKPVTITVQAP
As to the kind of experiment: SPR (Biacore).

T3 sequence (P12314 16-292): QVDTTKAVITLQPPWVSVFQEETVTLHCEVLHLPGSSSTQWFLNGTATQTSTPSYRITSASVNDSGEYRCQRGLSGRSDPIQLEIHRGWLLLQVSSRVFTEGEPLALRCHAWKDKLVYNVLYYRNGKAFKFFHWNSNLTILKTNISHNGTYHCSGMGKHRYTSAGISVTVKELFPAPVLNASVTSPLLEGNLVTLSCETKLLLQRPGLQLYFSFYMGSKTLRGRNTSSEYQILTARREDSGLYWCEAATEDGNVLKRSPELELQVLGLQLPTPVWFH

B1: IL6R-BP212/IL6R-L (antibody, human IgG1, kappa)
heavy: QVQLQESGPGLVKPSETLSLTCAVSGHSISHDHAWSWVRQPPGEGLEWIGFISYSGITNYNPSLQGRVTISRDNSKNTLYLQMNSLRAEDTAVYYCARSLARTTAMDYWGEGTLVTVSSASTKGPSVFPLAPSSKSTSGGTAALGCLVKDYFPEPVTVSWNSGALTSGVHTFPAVLQSSGLYSLSSVVTVPSSSLGTQTYICNVNHKPSNTKVDKKVEPKSCDKTHTCPPCPAPDLLGGDSVFLFPPKPKDTLMISRTPEVTCVVVDVSDEDGEVKFNWYVDGVEVHNAKTKPREEQDNSTYRVVSVLTVLHQDWLNGKEYKCKVSNKALPRPIEKTISKAKGQPREPQVYTLPPSRDELTKNQVSLTCLVKGFYPSDIAVEWESNGQPENNYKTTPPVLDSDGSFFLYSKLTVDKSRWQQGNVFSCSVMHEALHNHYTQESLSLSP
light: not shown
Regarding B1, the relative binding activity in assay [1] is 135 relative (IL6R-BF648/IL6R-L = 100); in assay [2] it was 173 relative (IL6R-BF648/IL6R-L = 100); in assay [3], 117 relative (IL6R-BF648/IL6R-L = 100).

B2: IL6R-BP185/IL6R-L (antibody, human IgG1, kappa)
heavy: QVQLQESGPGLVKPSETLSLTCAVSGHSISHDHAWSWVRQPPGEGLEWIGFISYSGITNYNPSLQGRVTISRDNSKNTLYLQMNSLRAEDTAVYYCARSLARTTAMDYWGEGTLVTVSSASTKGPSVFPLAPSSKSTSGGTAALGCLVKDYFPEPVTVSWNSGALTSGVHTFPAVLQSSGLYSLSSVVTVPSSSLGTQTYICNVNHKPSNTKVDKKVEPKSCDKTHTCPPCPAPDYLGDDSVFLFPPKPKDTLMISRTPEVTCVVVDVSHEDGEVKFNWYVDGVEVHNAKTKPREEQYNSTYRVVSVLTVLHQDWLNGKEYKCKVSNAALPKPIEKTISKAKGQPREPQVYTLPPSRDELTKNQVSLTCLVKGFYPSDIAVEWESNGQPENNYKTTPPVLDSDGSFFLYSKLTVDKSRWQQGNVFSCSVMHEALHNHYTQESLSLSP
light: not shown
As for B2, the results for the relative binding activity in assay [1], in assay [2] and in assay [3] were 446 relative (IL6R-BF648/IL6R-L = 100), 179 relative (IL6R-BF648/IL6R-L = 100) and 47 relative (IL6R-BF648/IL6R-L = 100), respectively.

B3: IL6R-BP453/IL6R-L (antibody)
heavy: QVQLQESGPGLVKPSETLSLTCAVSGHSISHDHAWSWVRQPPGEGLEWIGFISYSGITNYNPSLQGRVTISRDNSKNTLYLQMNSLRAEDTAVYYCARSLARTTAMDYWGEGTLVTVSSASTKGPSVFPLAPSSKSTSGGTAALGCLVKDYFPEPVTVSWNSGALTSGVHTFPAVLQSSGLYSLSSVVTVPSSSLGTQTYICNVNHKPSNTKVDKKVEPKSCDKTHTCPPCPAPDLLGDDSVFLFPPKPKDTLMISRTPEVTCVVVDVAEEDGEVKFNWYVDGVEVHNAKTKPREEQYNSTYRVVSVLTVLHQDWLNGKEYKCKVSNKALPRPIEKTISKAKGQPREPQVYTLPPSRDELTKNQVSLTCLVKGFYPSDIAVEWESNGQPENNYKTTPIVLDSDGSFFLYSKLTVDKSRWQQGNVFSCSVMHEALHNHYTQESLSLSP
light: not shown
notes: Printed 'P3961'
For the molecule B3, the binding result in assay [4] is recorded as “binds”.

B4: IL6R-BP450/IL6R-L (antibody, human IgG1, kappa, name in EU numbering)
heavy: QVQLQESGPGLVKPSETLSLTCAVSGHSISHDHAWSWVRQPPGEGLEWIGFISYSGITNYNPSLQGRVTISRDNSKNTLYLQMNSLRAEDTAVYYCARSLARTTAMDYWGEGTLVTVSSASTKGPSVFPLAPSSKSTSGGTAALGCLVKDYFPEPVTVSWNSGALTSGVHTFPAVLQSSGLYSLSSVVTVPSSSLGTQTYICNVNHKPSNTKVDKKVEPKSCDKTHTCPPCPAPDLLGDDSVFLFPPKPKDTLMISRTPEVTCVVVDVAEEDGEVKFNWYVDGVEVHNAKTKPREEQYNSTYRVVSVLTVLHQDWLNGKEYKCKVSNKALPRPIEKTISKAKGQPREPQVYTLPPSRDELTKNQVSLTCLVKGFYPSDIAVEWESNGQPENNYKTTPFVLDSDGSFFLYSKLTVDKSRWQQGNVFSCSVMHEALHNHYTQESLSLSP
light: not shown
Regarding B4, in assay [4], the binding result is on record as “binds”.

B5: IL6R-BP448/IL6R-L (antibody, human IgG1, kappa, name in EU numbering)
heavy: QVQLQESGPGLVKPSETLSLTCAVSGHSISHDHAWSWVRQPPGEGLEWIGFISYSGITNYNPSLQGRVTISRDNSKNTLYLQMNSLRAEDTAVYYCARSLARTTAMDYWGEGTLVTVSSASTKGPSVFPLAPSSKSTSGGTAALGCLVKDYFPEPVTVSWNSGALTSGVHTFPAVLQSSGLYSLSSVVTVPSSSLGTQTYICNVNHKPSNTKVDKKVEPKSCDKTHTCPPCPAPDLLGDDSVFLFPPKPKDTLMISRTPEVTCVVVDVAEEDGEVKFNWYVDGVEVHNAKTKPREEQYNSTYRVVSVLTVLHQDWLNGKEYKCKVSNKALPRPIEKTISKAKGQPREPQVYTLPPSRDELTKNQVSLTCLVKGFYPSDIAVEWESNGQPENNYKTTPDVLDSDGSFFLYSKLTVDKSRWQQGNVFSCSVMHEALHNHYTQESLSLSP
light: not shown
Consider B5, for which the binding result in assay [4] is reported as “binds”.

B6: IL6R-BP214/IL6R-L (antibody, human IgG1, kappa)
heavy: QVQLQESGPGLVKPSETLSLTCAVSGHSISHDHAWSWVRQPPGEGLEWIGFISYSGITNYNPSLQGRVTISRDNSKNTLYLQMNSLRAEDTAVYYCARSLARTTAMDYWGEGTLVTVSSASTKGPSVFPLAPSSKSTSGGTAALGCLVKDYFPEPVTVSWNSGALTSGVHTFPAVLQSSGLYSLSSVVTVPSSSLGTQTYICNVNHKPSNTKVDKKVEPKSCDKTHTCPPCPAPDYLGDDSVFLFPPKPKDTLMISRTPEVTCVVVDVSHEDPEVKFNWYVDGVEVHNAKTKPREEQDNSTYRVVSVLTVLHQDWLNGKEYKCKVSNDALPKPIEKTISKAKGQPREPQVYTLPPSRDELTKNQVSLTCLVKGFYPSDIAVEWESNGQPENNYKTTPPVLDSDGSFFLYSKLTVDKSRWQQGNVFSCSVMHEALHNHYTQESLSLSP
light: not shown
Turning to B6, the relative binding activity in assay [1] is 285 relative (IL6R-BF648/IL6R-L = 100); in assay [2], 174 relative (IL6R-BF648/IL6R-L = 100); in assay [3] it was 36 relative (IL6R-BF648/IL6R-L = 100).

B7: IL6R-BP449/IL6R-L (antibody, human IgG1, kappa, name in EU numbering)
heavy: QVQLQESGPGLVKPSETLSLTCAVSGHSISHDHAWSWVRQPPGEGLEWIGFISYSGITNYNPSLQGRVTISRDNSKNTLYLQMNSLRAEDTAVYYCARSLARTTAMDYWGEGTLVTVSSASTKGPSVFPLAPSSKSTSGGTAALGCLVKDYFPEPVTVSWNSGALTSGVHTFPAVLQSSGLYSLSSVVTVPSSSLGTQTYICNVNHKPSNTKVDKKVEPKSCDKTHTCPPCPAPDLLGDDSVFLFPPKPKDTLMISRTPEVTCVVVDVAEEDGEVKFNWYVDGVEVHNAKTKPREEQYNSTYRVVSVLTVLHQDWLNGKEYKCKVSNKALPRPIEKTISKAKGQPREPQVYTLPPSRDELTKNQVSLTCLVKGFYPSDIAVEWESNGQPENNYKTTPEVLDSDGSFFLYSKLTVDKSRWQQGNVFSCSVMHEALHNHYTQESLSLSP
light: not shown
For B7, the binding result in assay [4] is reported as “binds”.

B8: IL6R-BP455/IL6R-L (antibody, human IgG1, kappa, name in EU numbering)
heavy: QVQLQESGPGLVKPSETLSLTCAVSGHSISHDHAWSWVRQPPGEGLEWIGFISYSGITNYNPSLQGRVTISRDNSKNTLYLQMNSLRAEDTAVYYCARSLARTTAMDYWGEGTLVTVSSASTKGPSVFPLAPSSKSTSGGTAALGCLVKDYFPEPVTVSWNSGALTSGVHTFPAVLQSSGLYSLSSVVTVPSSSLGTQTYICNVNHKPSNTKVDKKVEPKSCDKTHTCPPCPAPDLLGDDSVFLFPPKPKDTLMISRTPEVTCVVVDVAEEDGEVKFNWYVDGVEVHNAKTKPREEQYNSTYRVVSVLTVLHQDWLNGKEYKCKVSNKALPRPIEKTISKAKGQPREPQVYTLPPSRDELTKNQVSLTCLVKGFYPSDIAVEWESNGQPENNYKTTPLVLDSDGSFFLYSKLTVDKSRWQQGNVFSCSVMHEALHNHYTQESLSLSP
light: not shown
Take B8: in assay [4], the binding result was “binds”.

B9: IL6R-BP454/IL6R-L (antibody, human IgG1, kappa, name in EU numbering)
heavy: QVQLQESGPGLVKPSETLSLTCAVSGHSISHDHAWSWVRQPPGEGLEWIGFISYSGITNYNPSLQGRVTISRDNSKNTLYLQMNSLRAEDTAVYYCARSLARTTAMDYWGEGTLVTVSSASTKGPSVFPLAPSSKSTSGGTAALGCLVKDYFPEPVTVSWNSGALTSGVHTFPAVLQSSGLYSLSSVVTVPSSSLGTQTYICNVNHKPSNTKVDKKVEPKSCDKTHTCPPCPAPDLLGDDSVFLFPPKPKDTLMISRTPEVTCVVVDVAEEDGEVKFNWYVDGVEVHNAKTKPREEQYNSTYRVVSVLTVLHQDWLNGKEYKCKVSNKALPRPIEKTISKAKGQPREPQVYTLPPSRDELTKNQVSLTCLVKGFYPSDIAVEWESNGQPENNYKTTPKVLDSDGSFFLYSKLTVDKSRWQQGNVFSCSVMHEALHNHYTQESLSLSP
light: not shown
As to B9, in assay [4], the binding result is given as “binds”.

B10: IL6R-BP391/IL6R-L (antibody, human IgG1, kappa)
heavy: QVQLQESGPGLVKPSETLSLTCAVSGHSISHDHAWSWVRQPPGEGLEWIGFISYSGITNYNPSLQGRVTISRDNSKNTLYLQMNSLRAEDTAVYYCARSLARTTAMDYWGEGTLVTVSSASTKGPSVFPLAPSSKSTSGGTAALGCLVKDYFPEPVTVSWNSGALTSGVHTFPAVLQSSGLYSLSSVVTVPSSSLGTQTYICNVNHKPSNTKVDKKVEPKSCDKTHTCPPCPAPDLLGDDSVFLFPPKPKDTLMISRTPEVTCVVVDVSDEDGEVKFNWYVDGVEVHNAKTKPREEQDNSTYRVVSVLTVLHQDWLNGKEYKCKVSNKALPRPTEKTISKAKGQPREPQVYTLPPSRDELTKNQVSLTCLVKGFYPSDIAVEWESNGQPENNYKTTPPVLDSDGSFFLYSKLTVDKSRWQQGNVFSCSVMHEALHNHYTQESLSLSP
light: not shown
Take B10: the binding result in assay [4] is reported as “binds”.

B11: IL6R-BP404/IL6R-L (antibody, human IgG1, kappa)
heavy: QVQLQESGPGLVKPSETLSLTCAVSGHSISHDHAWSWVRQPPGEGLEWIGFISYSGITNYNPSLQGRVTISRDNSKNTLYLQMNSLRAEDTAVYYCARSLARTTAMDYWGEGTLVTVSSASTKGPSVFPLAPSSKSTSGGTAALGCLVKDYFPEPVTVSWNSGALTSGVHTFPAVLQSSGLYSLSSVVTVPSSSLGTQTYICNVNHKPSNTKVDKKVEPKSCDKTHTCPPCPAPDYLGDDSVFLFPPKPKDTLMISRTPEVTCVVVDVSEEDGEVKFNWYVDGVEVHNAKTKPREEQDNSTYRVVSVLTVLHQDWLNGKEYKCKVSNKALPRPIEKTISKAKGQPREPQVYTLPPSRDELTKNQVSLTCLVKGFYPSDIAVEWESNGQPENNYKTTPPVLDSDGSFFLYSKLTVDKSRWQQGNVFSCSVMHEALHNHYTQESLSLSP
light: not shown
Turning to B11, the “fold increase of binding against IL6R-BP264/IL6R-L” value in assay [4] amounted to 1.1 fold.
